Test results reported in US8138323 (YEDA RESEARCH AND DEVELOPMENT, dated 2012).

Target: TNF (UniProt P01375 77-233)
Assay: cell-based or functional assay

Chain of TNF (P01375 77-233 limits assumed): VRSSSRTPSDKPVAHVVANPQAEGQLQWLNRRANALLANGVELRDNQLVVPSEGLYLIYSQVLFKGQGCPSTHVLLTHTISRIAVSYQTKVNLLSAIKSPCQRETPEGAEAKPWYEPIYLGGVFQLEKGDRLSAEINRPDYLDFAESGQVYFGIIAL

B1: Tumor Necrosis Factor (TNF) Binding Protein II (receptor, human, UniProt P20333 25-213, looked up)
chain: AQVAFTPYAPEPGSTCRLREYYDQTAQMCCSKCSPGQHAKVFCTKTSDTVCDSCEDSTYTQLWNWVPECLSCGSRCSSDQVETQACTREQNRICTCRPGWYCALSKQEGCRLCAPLRKCRPGFGVARPGTETSDVVCKPCAPGTFSNTTSSTDICRPHQICNVVAIPGNASMDAVCTSTSPTRSMAPGA
detectable cytotoxicity of rTNF in the presence of TBP-II against rTNF alone, days 2 to 9: 10 fold
